To fix the notation:
B1: Act-CRMP5 (complete human CRMP 5 protein fused to NLS-B42-HA, prey) (other, UniProt Q9BPU6 1-564, looked up, not shown: large carriers)
chain: MLANSASVRILIKGGKVVNDDCTHEADVYIENGIIQQVGRELMIPGGAKVIDATGKLVIPGGIDTSTHFHQTFMNATCVDDFYHGTKAALVGGTTMIIGHVLPDKETSLVDAYEKCRGLADPKVCCDYALHVGITWWAPKVKAEMETLVREKGVNSFQMFMTYKDLYMLRDSELYQVLHACKDIGAIARVHAENGELVAEGAKEALDLGITGPEGIEISRPEELEAEATHRVITIANRTHCPIYLVNVSSISAGDVIAAAKMQGKVVLAETTTAHATLTGLHYYHQDWSHAAAYVTVPPLRLDTNTSTYLMSLLANDTLNIVASDHRPFTTKQKAMGKEDFTKIPHGVSGVQDRMSVIWERGVVGGKMDENRFVAVTSSNAAKLLNLYPRKGRIIPGADADVVVWDPEATKTISASTQVQGGDFNLYENMRCHGVPLVTISRGRVVYENGVFMCAEGTGKFCPLRSFPDTVYKKLVQREKTLKVRGVDRTPYLGDVAVVVHPGKKEMGTPLADTPTRPVTRHGGMRDLHESSFSLSGSQIDDHVPKRASARILAPPGGRSSGIW

In assay [1] the target is T1, LexA-CRMP5 (complete human CRMP 5 protein fused to LexA, bait) (human, UniProt P0A7C2 1-202; Q9BPU6 1-564).
T1 sequence (looked up): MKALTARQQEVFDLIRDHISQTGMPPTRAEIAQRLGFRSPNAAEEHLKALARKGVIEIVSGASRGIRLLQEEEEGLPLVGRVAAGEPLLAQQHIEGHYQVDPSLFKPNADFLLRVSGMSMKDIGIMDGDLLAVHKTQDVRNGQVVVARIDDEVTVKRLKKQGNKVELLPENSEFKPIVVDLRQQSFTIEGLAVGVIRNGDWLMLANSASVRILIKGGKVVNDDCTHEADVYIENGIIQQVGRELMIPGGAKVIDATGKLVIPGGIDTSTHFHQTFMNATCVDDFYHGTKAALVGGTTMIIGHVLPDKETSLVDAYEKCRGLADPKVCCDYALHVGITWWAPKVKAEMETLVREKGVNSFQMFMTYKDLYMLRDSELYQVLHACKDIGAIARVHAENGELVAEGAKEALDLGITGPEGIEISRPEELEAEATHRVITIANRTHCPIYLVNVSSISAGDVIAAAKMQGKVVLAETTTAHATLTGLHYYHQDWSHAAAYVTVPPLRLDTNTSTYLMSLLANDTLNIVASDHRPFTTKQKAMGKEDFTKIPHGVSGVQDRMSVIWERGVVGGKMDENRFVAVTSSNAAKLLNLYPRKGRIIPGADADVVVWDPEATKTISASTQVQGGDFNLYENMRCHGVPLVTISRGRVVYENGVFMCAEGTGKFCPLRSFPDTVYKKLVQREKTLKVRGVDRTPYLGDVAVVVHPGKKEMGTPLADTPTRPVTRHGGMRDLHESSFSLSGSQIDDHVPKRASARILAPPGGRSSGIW
Nature of the assay: yeast two-hybrid by conjugation, LexA bait and Act prey, lacZ reporter (X-gal).

Assay [2] concerns the target B1. Nature of the assay: yeast two-hybrid by conjugation, lacZ reporter (X-gal).

For the molecule B1, the binding result in assay [1] is on record as “binds”.

B2: LexA (bait vector without insert) (other)
chain: MKALTARQQEVFDLIRDHISQTGMPPTRAEIAQRLGFRSPNAAEEHLKALARKGVIEIVSGASRGIRLLQEEEEGLPLVGRVAAGEPLLAQQHIEGHYQVDPSLFKPNADFLLRVSGMSMKDIGIMDGDLLAVHKTQDVRNGQVVVARIDDEVTVKRLKKQGNKVELLPENSEFKPIVVDLRQQSFTIEGLAVGVIRNGDWL
notes: range 1-202
Take B2: the binding result in assay [2] is “no binding”.

(Values after US7820375 (INSTITUT NATIONAL DE LA SANTE ET DE LA RECHERCHE MEDICALE …, dated 2010).)
